Among the data in article PMC2722949 (Journal of molecular biology, 2009) are Kd values, retold here.

Where no end group is shown, it is not given here. [ ]: non-standard residue; d: D form. pY = N[C@@H](Cc1ccc(OP(=O)(O)O)cc1)C(=O)O

Experiment in all cases: NMR titration
Experiment [1] deals with Itk SH2 domain, wild type (mouse (the paper calls its residue numbers 'mouse numbering')).
Experiment [2] concerns the target Itk SH2 domain E308A/K309A double mutant (mouse (the paper calls its residue numbers 'mouse numbering')).
The next experiment concerns the target Btk SH2 domain S371P (UniProt Q06187 270-387, S371P).
The target of experiment [3] is Btk SH2 domain, wild type (UniProt Q06187 270-387).
A further experiment addresses Btk SH2 domain H364D (UniProt Q06187 270-387, H364D).

Chain of Btk SH2 domain S371P (Q06187 270-387 S371P): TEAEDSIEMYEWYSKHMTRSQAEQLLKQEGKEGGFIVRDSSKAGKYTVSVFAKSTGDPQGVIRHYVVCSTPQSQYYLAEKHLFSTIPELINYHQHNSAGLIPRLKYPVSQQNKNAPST
Chain of Btk SH2 domain, wild type (Q06187 270-387): as the sequence (Q06187 270-387 S371P) above, with P102S counted along it
Chain of Btk SH2 domain H364D (Q06187 270-387 H364D): as the sequence (Q06187 270-387 S371P) above, with H95D, P102S counted along it

Broadly, the Kd is the equilibrium constant for the complex coming apart. Low readings indicate higher affinity, high ones lower affinity. Take AD[pY]EPP [phospho-SLP76 peptide (ADpYEPP)]: the Kd in experiment [1] was found to be 380 µM; in experiment [2] it was 480 µM.
As to GDG[pY]EEISPLLL [Btk SH2 phospho-peptide ligand (GDGpYEEISPLLL)], the Kd with Btk SH2 domain S371P came out at 600 ± 110 µM; in experiment [3], 450 ± 40 µM; with Btk SH2 domain H364D, 500 ± 200 µM.
